Numbering of substitutions follows the chain as printed. Numbers in names are those of the source. Blank lines part the entries; values can stand above or below the binder they belong to.
What was measured:
[1] = biological target: T1, Recombinant mouse FcγRIII [CD16], Ala31-Thr215 with C-terminal 10-His tag (mouse, UniProt P08508 31-215); assay: SPR (Biacore X): m-FcγRIII injected over c515H7 Mab immobilized on a CM4 sensorchip; heterogeneous ligand model, major component (99%)
T1 construct: Soluble form bought from R&D Systems; also called m-FcγRIII
T1 sequence: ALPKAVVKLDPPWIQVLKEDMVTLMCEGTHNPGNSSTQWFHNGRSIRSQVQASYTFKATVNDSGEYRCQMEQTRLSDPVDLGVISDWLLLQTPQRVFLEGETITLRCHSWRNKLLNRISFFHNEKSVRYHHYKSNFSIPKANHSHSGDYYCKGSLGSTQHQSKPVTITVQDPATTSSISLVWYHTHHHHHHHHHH
Method: (§1) 2017 RU of c515H7 Mab were immobilized using the amine coupling kit chemistry on the second flowcell (FC2) of a CM4 sensorchip. The first flowcell (FC1) activated by NHS and EDC mixture and des-activated by ethanolamine served as the reference surface to check and subtract the non specific interaction between the analyte (Fc gamma receptors) and the sensorchip matrix.
(§2) The kinetic experiments were carried out at 25° Celsius at a flow rate of 30 μl/min. The HBS-EP buffer was used either as the running buffer or for the preparation of analyte solutions. The analyte solutions were injected during 90 seconds (association phase) with a 90 seconds delay (dissociation phase). An injection of running buffer as analyte was used as a double reference. All the sensorgrams were corrected by this double reference sensorgram.
After each injection of the analyte, the sensorchip was regenerated by injection of 20 mM NaOH, 75 mM NaCl solution.

[2] = biological target: T2, Recombinant mouse FcγRI [CD64], Gln25-Pro297 with C-terminal 6-His tag (mouse, UniProt P26151 25-297); assay: SPR (Biacore X): m-FcγRI injected over hz515H7VH1D76NVL2 Mab immobilized on a CM4 sensorchip; heterogeneous ligand model, major component (82%)
T2 construct: range 25-297; Soluble form bought from R&D Systems; also called m-FcγRI
T2 sequence: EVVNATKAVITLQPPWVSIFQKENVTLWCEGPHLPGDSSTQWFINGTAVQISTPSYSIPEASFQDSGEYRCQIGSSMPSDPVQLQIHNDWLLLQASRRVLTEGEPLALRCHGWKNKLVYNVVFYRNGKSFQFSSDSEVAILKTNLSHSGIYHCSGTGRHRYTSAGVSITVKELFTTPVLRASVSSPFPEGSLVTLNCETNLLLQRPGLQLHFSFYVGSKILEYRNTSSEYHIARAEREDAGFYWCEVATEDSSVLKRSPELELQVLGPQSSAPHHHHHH
Method: as §1, with “1964” for “2017”, “hz515H7VH1D76NVL2” for “c515H7”
as §2
After each injection of the analyte, the sensorchip was regenerated by injection of either 20 mM NaOH solution after h-FcγRI and m-FcγRIII or 10 mM NaOH after h-FcγRIIIA and m-FcγRI.

Kd [1]: 20.9 nM | koff [1]: 0.00446 s⁻¹ | kon [1]: 213000 M⁻¹ s⁻¹
B1: chimeric antibody c515H7 (antibody, human IgG1, kappa)
heavy: not shown
light: DIVMSQSPSSLAVSAGEKVTMSCKSSQSLFNSRTRKNYLAWYQQKPGQSPKLLIYWASARDSGVPARFTGSGSETYFTLTISRVQAEDLAVYYCMQSFNLRTFGGGTKLEIKRTVAAPSVFIFPPSDEQLKSGTASVVCLLNNFYPREAKVQWKVDNALQSGNSQESVTEQDSKDSTYSLSSTLTLSKADYEKHKVYACEVTHQGLSSPVTKSFNRGEC
notes: Human IgG1/kappa constant domains; also called c515H7 Mab; chimeric 515H7

Kd [2]: 76.8 nM | koff [2]: 0.106 s⁻¹ | kon [2]: 1.38e+06 M⁻¹ s⁻¹
B2: humanized antibody Hz515H7 VH1 D76N VL2 (antibody, human IgG1, kappa)
heavy: not shown
light: B1 light with S5T, A15L, K18R, V19A, G105Q, L109V
notes: IgG1/kappa; also called hz515H7VL2; hz515H7-1
